Laboratory results taken from the supplement of paper PMC7125110.
± gives the standard error. This sample holds only a part of the variants without activity.

B1: glmS ribozyme (parent)
chain: AUAAAAGCGCCAGAACUACAGAAAUGUAGUUGACGAGGAGGAGGUUUAUCGAAUUUUCGGCGGAUGCCUCCAAA

Tests used:
Settings in all cases: with glucosamine-6-phosphate
glucosamine-6-phosphate [1] = variants of: B1; test: self-cleavage kobs at 40 uM GlcN6P; higher = faster cleavage; RNA array
In short: (§1)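 Glucosamine-6-phosphate, from 40 μM to 10 mM in HEPES/KCl/Mg(OAc)2 buffer, was flowed over sequenced MiSeq chips carrying barcoded ribozyme variants transcribed in situ by E. coli RNA polymerase. A hybridised Cy3 probe tracked the variants at 37 °C as tiles were imaged over ~14 h. kobs, kcat and KM were obtained by fitting normalised per-tile medians to exponential decays and then applying weighted Michaelis–Menten fits across concentrations.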

glucosamine-6-phosphate [2] = variants of: B1; test: self-cleavage kobs at 10000 uM GlcN6P; higher = faster cleavage; RNA array
In short: as §1

glucosamine-6-phosphate [3] = variants of: B1; test: self-cleavage kobs at 160 uM GlcN6P; higher = faster cleavage; RNA array
In short: as §1

glucosamine-6-phosphate [4] = variants of: B1; test: self-cleavage kobs at 640 uM GlcN6P; higher = faster cleavage; RNA array
In short: as §1

glucosamine-6-phosphate [5] = variants of: B1; test: self-cleavage kobs at 2500 uM GlcN6P; higher = faster cleavage; RNA array
In short: as §1

Row | Variant | self-cleavage kobs at 40 uM GlcN6P (glucosamine-6-phosphate [1]) [s⁻¹] | self-cleavage kobs at 10000 uM GlcN6P (glucosamine-6-phosphate [2]) [s⁻¹] | self-cleavage kobs at 160 uM GlcN6P (glucosamine-6-phosphate [3]) [s⁻¹] | self-cleavage kobs at 640 uM GlcN6P (glucosamine-6-phosphate [4]) [s⁻¹] | self-cleavage kobs at 2500 uM GlcN6P (glucosamine-6-phosphate [5]) [s⁻¹]
1 | G32U A52G C58A C70A | 5.29e-05 ± 2.5e-05 | 4.31e-05 ± 2e-05 | – | – | –
2 | U30A G66C C70G | < 1e-05 | – | – | – | –
3 | U30A G59A G63A | < 1e-05 | – | – | – | –
4 | G32U U49G A53C | < 1e-05 | – | – | – | –
5 | A33G G44U C67U | < 1e-05 | < 1e-05 | – | – | –
6 | U31C A36G A39G U47C | < 1e-05 | < 1e-05 | – | – | –
7 | A33C G60U | < 1e-05 | < 1e-05 | < 1e-05 | < 1e-05 | –
8 | U31G A39G A64G | 0.00023 ± 8.9e-05 | 0.0288 ± 0.012 | – | 0.00544 ± 0.0014 | –
9 | A33G G51U | < 1e-05 | < 1e-05 | – | < 1e-05 | –
10 | U31A U46A C61U C70U | < 1e-05 | – | – | – | –
11 | A33C A64C C68U | < 1e-05 | < 1e-05 | < 1e-05 | < 1e-05 | < 1e-05
12 | A33G C34A | < 1e-05 | < 1e-05 | – | – | –
13 | A33U C50A C68G | 4.36e-05 ± 2e-05 | – | – | – | –
14 | U31G G63A | < 1e-05 | < 1e-05 | < 1e-05 | < 1e-05 | < 1e-05
15 | A33G G40C C70U | < 1e-05 | < 1e-05 | – | – | –
16 | U31A A36U | < 1e-05 | < 1e-05 | < 1e-05 | < 1e-05 | < 1e-05
17 | A33C G51A G60C | < 1e-05 | – | – | < 1e-05 | –
18 | A33U U46A U47G | < 1e-05 | – | – | – | –
19 | G32U C50G C68G | 0.00012 ± 2.5e-05 | 9.96e-05 ± 1.7e-05 | – | – | –
20 | U30A G51U U54A | < 1e-05 | < 1e-05 | – | – | –
21 | U30A A39U G63U | < 1e-05 | – | – | < 1e-05 | < 1e-05
22 | A33U G51C G60U G63U | < 1e-05 | – | – | – | –
23 | U30A G35A | < 1e-05 | < 1e-05 | < 1e-05 | < 1e-05 | < 1e-05
24 | G32C G43C G51U | < 1e-05 | < 1e-05 | – | – | –

Row | Variant | self-cleavage kobs at 40 uM GlcN6P (glucosamine-6-phosphate [1]) [s⁻¹] | self-cleavage kobs at 10000 uM GlcN6P (glucosamine-6-phosphate [2]) [s⁻¹] | self-cleavage kobs at 160 uM GlcN6P (glucosamine-6-phosphate [3]) [s⁻¹] | self-cleavage kobs at 640 uM GlcN6P (glucosamine-6-phosphate [4]) [s⁻¹] | self-cleavage kobs at 2500 uM GlcN6P (glucosamine-6-phosphate [5]) [s⁻¹]
25 | G32C C34U A64G C68G | < 1e-05 | < 1e-05 | – | – | –
26 | G32U G44U | < 1e-05 | – | < 1e-05 | < 1e-05 | –
27 | U31A U49A C61U C70G | < 1e-05 | – | – | – | –
28 | U30A U31A | 0.000419 ± 7.6e-05 | 0.0264 ± 0.0056 | 0.00152 ± 0.00033 | 0.00269 ± 0.00057 | 0.0075 ± 0.0013
29 | A33U A42U C61U | < 1e-05 | – | – | – | –
30 | U31G C50G | 6.22e-05 ± 1.5e-05 | 3.31e-05 ± 1.1e-05 | 0.000172 ± 3e-05 | 0.000175 ± 4.5e-05 | 0.00013 ± 1.9e-05
31 | U30C A39C G41U | < 1e-05 | < 1e-05 | – | – | –
32 | A33G A39U | < 1e-05 | < 1e-05 | – | – | < 1e-05
33 | A33C U65G | < 1e-05 | – | < 1e-05 | < 1e-05 | –
34 | U31G A53G | 0.000276 ± 4.7e-05 | 0.02 ± 0.0035 | 0.000661 ± 0.00018 | – | 0.00382 ± 0.00096
35 | U30C U69G | 3.65e-05 ± 1.2e-05 | 2.39e-05 ± 1.1e-05 | 7.31e-05 ± 1.5e-05 | 0.000119 ± 2.8e-05 | 5.46e-05 ± 1.1e-05
36 | A33C G51A | < 1e-05 | < 1e-05 | – | – | < 1e-05
37 | U31C G35A | < 1e-05 | < 1e-05 | < 1e-05 | < 1e-05 | < 1e-05
38 | A33G G41A | < 1e-05 | < 1e-05 | < 1e-05 | – | –
39 | A33G G41U | < 1e-05 | < 1e-05 | < 1e-05 | < 1e-05 | –
40 | U30G G43A | < 1e-05 | – | < 1e-05 | – | –
41 | G32C C70G C71G | 7.5e-05 ± 3.3e-05 | – | – | 0.000291 ± 9.2e-05 | 7.37e-05 ± 3.4e-05
42 | G32U A36G U45C C68G | < 1e-05 | – | – | – | –
43 | G32C U49G | < 1e-05 | – | < 1e-05 | < 1e-05 | –
44 | U30G A52C G62U | < 1e-05 | < 1e-05 | – | – | –
45 | U31G C61G U65C | < 1e-05 | – | – | – | –
46 | U31G C34U | < 1e-05 | < 1e-05 | < 1e-05 | < 1e-05 | –
47 | G32A G41C | < 1e-05 | 3.31e-05 ± 8.8e-06 | – | < 1e-05 | –
